From patent US7026125, “Heterodimers of retinoid X receptors (RXRS) and other steroid hormone receptors” (Ligand Pharmaceuticals) come the findings set out here.

What all share (conditions): label: 32P
Series [1] concerns the target RXRα (Homo sapiens, UniProt P19793 P19793:1-462). The series can be described thus: EMSA; at concentration used. How it is done: (§1) (b) Gel retardation analysis of RXRα-TRα interaction using different DNA response elements. Gel retardation assays were carried out essentially as described in FIG. 1a but using different response elements. (−) represents the binding of unprogrammed reticulocyte lysate.
(§2) In vitro translated receptor protein (1 to 5 μl depending on the translation efficiency) was incubated with the ^32P-labeled oligonucleotides in a 20-μl reaction mixture containing 10 mM hepes buffer, pH 7.9, 50 mM KCl, 1 mM DTT, 2.5 mM MgCl, 10% glycerol, and 1 μg of poly(dI-dC) at 25° C. for 20 minutes. In general, relative low receptor concentration was used to obtain the clear effect of heterodimer formation. The reaction mixture was then loaded on a 5% nondenaturing ployacrylamide gel containing 0.5×TBE (1×TBE=0.089 M Tris-borate, 0.089 M boric acid, and 0.002 M EDTA). To analyze the effect of RXRα or the nuclear proteins on receptor DNA binding activity, RXRα or the cell extracts were preincubated with receptor protein at room temperature for 10 minutes before performing the DNA binding assay. When antibody was used, 1 μl of the antiserum was incubated with the specific translation products at room temperature for 45 minutes before performing the experiments described above.

Series [2] addresses T1, TRα (UniProt P10827-2 P10827-2:1-410).
T1 sequence: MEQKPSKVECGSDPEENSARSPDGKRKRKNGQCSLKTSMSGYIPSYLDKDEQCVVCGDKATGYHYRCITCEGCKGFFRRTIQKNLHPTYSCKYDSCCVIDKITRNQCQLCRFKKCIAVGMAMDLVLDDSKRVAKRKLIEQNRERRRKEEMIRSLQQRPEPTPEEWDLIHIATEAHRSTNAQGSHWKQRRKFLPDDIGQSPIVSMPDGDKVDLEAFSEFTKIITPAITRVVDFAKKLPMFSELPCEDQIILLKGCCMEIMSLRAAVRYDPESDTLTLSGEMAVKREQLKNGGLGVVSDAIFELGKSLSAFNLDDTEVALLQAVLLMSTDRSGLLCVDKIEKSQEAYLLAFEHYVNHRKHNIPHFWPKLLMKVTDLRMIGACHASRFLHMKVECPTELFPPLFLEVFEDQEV
Description: EMSA; no visible binding. How it is done:
as §1, §2

The target in series [3] is T2, TRα/RXRα heterodimer (UniProt P10827-2;P19793 P10827-2:1-410,P19793:1-462). Description: EMSA; strong binding. How it is done:
as §2

For series [4], the target named is T1, TRα. Description: EMSA. How it is done: as §2
A general note: In EMSA bound probe runs differently from free probe, usually more slowly.

For series [5], the target named is T2, TRα/RXRα heterodimer. The series can be described thus: EMSA; TRα binding abolished by RXRα. On the procedure: as §2
In series [6] the target is T1, TRα. The series can be described thus: EMSA; about as efficient as palindromic TRE. On the procedure: as §2
The target of series [7] is T2, TRα/RXRα heterodimer. The series can be described thus: EMSA; strongly enhanced and upshifted versus TRα alone. On the procedure:
as §2

The target in series [8] is T1, TRα. Description: EMSA; one complex. How it is done: as §2

Sequence of RXRα (P19793 whole entry, one chain of several): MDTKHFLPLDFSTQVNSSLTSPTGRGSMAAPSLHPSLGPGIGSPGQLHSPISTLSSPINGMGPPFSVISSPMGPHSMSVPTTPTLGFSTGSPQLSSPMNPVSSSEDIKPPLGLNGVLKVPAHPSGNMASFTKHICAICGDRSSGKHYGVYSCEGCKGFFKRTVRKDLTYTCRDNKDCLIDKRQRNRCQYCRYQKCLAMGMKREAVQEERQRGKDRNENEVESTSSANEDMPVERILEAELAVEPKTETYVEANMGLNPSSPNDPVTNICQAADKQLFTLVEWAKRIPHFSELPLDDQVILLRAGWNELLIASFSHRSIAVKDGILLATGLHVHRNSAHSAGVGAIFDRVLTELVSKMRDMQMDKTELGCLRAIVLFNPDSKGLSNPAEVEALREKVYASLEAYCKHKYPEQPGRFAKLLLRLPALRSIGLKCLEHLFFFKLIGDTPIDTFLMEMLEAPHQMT
T2 sequence (P19793 whole entry, one chain of several): as above

B1: βRARE (dsDNA)
DNA 1: GATCAGGGTTCAGGCAAAGTTCACGATC
DNA 2: GATCGTGAACTTTGCCTGAACCCTGATC
Turning to B1, the binding result is “no binding” in series [1], “no binding” in series [2] and “binds” in series [3].

B2: ERE palindrome (dsDNA)
DNA 1: GATCTCAGGTCACTGTGACCTGAGATC
DNA 2: GATCTCAGGTCACAGTGACCTGAGATC
As to B2, the binding result in series [4] was “binds”; in series [1], “no binding”; in series [5] it was “no binding”.

B3: TRE/half (dsDNA)
DNA 1: GATCTCAGGTCAGATC
DNA 2: GATCTGACCTGAGATC
Regarding B3, the figures for the binding result in series [1], in series [5] and in series [6] were “no binding”, “no binding” and “binds”, respectively.

B4: TRE/OP (inverted repeat, 4 bp spacer) (dsDNA)
DNA 1: GATCCTGACCTGAGATCTCAGGTCAGGATC
DNA 2: B4 DNA 1
With B4, the binding result in series [7] was “binds”; in series [1], “no binding”; in series [8], “binds”.
